This note sets out measurements from PMC5027563, “Functional Recovery of AQP2 Recessive Mutations Through Hetero-Oligomerization with Wild-Type Counterpart” (Scientific Reports, 2016).

The target in experiment [1] is T1, wild-type Aquaporin-2 (untagged) (human, UniProt P41181 1-271).
T1 sequence (looked up): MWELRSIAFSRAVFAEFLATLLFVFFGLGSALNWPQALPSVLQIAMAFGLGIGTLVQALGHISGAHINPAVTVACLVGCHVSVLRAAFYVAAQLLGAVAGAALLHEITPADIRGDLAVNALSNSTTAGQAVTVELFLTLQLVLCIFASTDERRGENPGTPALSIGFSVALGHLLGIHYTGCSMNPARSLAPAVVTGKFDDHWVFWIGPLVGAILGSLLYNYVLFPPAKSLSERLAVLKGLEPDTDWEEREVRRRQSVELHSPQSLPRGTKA

For experiment [2], the target named is T1, wild-type Aquaporin-2 (untagged). This is another data set of the same source.
In experiment [3] the target is T2, GFP-tagged Aquaporin-2 V24A (human, UniProt P41181 1-271, V24A).
T2 construct: Aquaporin-2 (AQP2), human, recessive NDI mutation V24A, GFP-tagged form; The methods describe only how pT7Ts-GFP-AQP2 (wild type) was made; also called GFP-tagged V24A; source: Xenopus laevis oocytes, cRNA injected; total membranes solubilised in 2% deoxycholate
T2 sequence (looked up): T1 sequence (looked up) with V24A
Nature of the experiment: co-IP; Xenopus oocytes co-injected with 0.5 ng mRNA of an untagged AQP2 variant and 1 ng (equimolar) of a GFP-tagged form, 24 h; total membranes solubilised in 2% deoxycholate in PBS, 100,000 x g supernatant; IP with goat anti-GFP and protein-G magnetic beads at room temperature; blot with anti-AQP2 of the untagged 29 kDa band; densitometry in % of wt-AQP2, 4 assays. The settings on record: partners not purified.

In experiment [4] the target is T3, GFP-tagged wild-type Aquaporin-2 (human, UniProt P41181 1-271).
T3 construct: Aquaporin-2 (AQP2), human, wild type, from pT7Ts-GFP-AQP2 (subcloned through the pAc-GFP vector); 58 kDa with GFP; also called GFP-wt-AQP2; GFP-tagged-WT; source: Xenopus laevis oocytes, cRNA injected; total membranes solubilised in 2% deoxycholate
T3 sequence (looked up): T1 sequence (looked up)
The description is as above. Conditions: partners not purified.

The target of experiment [5] is T1, wild-type Aquaporin-2 (untagged). Nature of the experiment: cell-based or functional assay.
In experiment [6] the target is T4, GFP-tagged Aquaporin-2 D150E (human, UniProt P41181 1-271, D150E).
T4 construct: Aquaporin-2 (AQP2), human, recessive NDI mutation D150E, GFP-tagged form; The methods describe only how pT7Ts-GFP-AQP2 (wild type) was made; also called GFP-tagged D150E; source: Xenopus laevis oocytes, cRNA injected; total membranes solubilised in 2% deoxycholate
T4 sequence (looked up): T1 sequence (looked up) with D150E
Nature of the experiment: co-IP; Xenopus oocytes co-injected with 0.5 ng mRNA of an untagged AQP2 variant and 1 ng (equimolar) of a GFP-tagged form, 24 h; total membranes solubilised in 2% deoxycholate in PBS, 100,000 x g supernatant; IP with goat anti-GFP and protein-G magnetic beads at room temperature; blot with anti-AQP2 of the untagged 29 kDa band; densitometry in % of wt-AQP2, 4 assays. The settings on record: partners not purified.

Positions count from the first letter of the chain named. Names may count otherwise.

B1: Aquaporin-2 L22V (untagged) (natural protein)
chain: T1 sequence (looked up) with L22V
B1 registered a net increase (gain of function) in water permeability (Pf) of oocytes when expressed along wt-AQP2, in % of the wt-AQP2 activity (% of the wt-AQP2 activity) in experiment [1] of 106.

B2: Aquaporin-2 R254Q (untagged) (natural protein)
chain: T1 sequence (looked up) with R254Q
As for B2, the water permeability (Pf) of oocytes injected with 1 ng mRNA mixtures of wt/mut ratios 4/0 to 0/4, in % of pure wt-AQP2; the printed value is of the 2/2 ratio; dominant negative effect (% of pure wt-AQP2) in experiment [2] amounted to 14.

B3: Aquaporin-2 T126M (untagged) (natural protein)
chain: T1 sequence (looked up) with T126M
For B3, in experiment [1], the net increase (gain of function) in water permeability (Pf) of oocytes when expressed along wt-AQP2, in % of the wt-AQP2 activity (% of the wt-AQP2 activity) amounted to 42.

B4: Aquaporin-2 A147T (untagged) (natural protein)
chain: T1 sequence (looked up) with A147T
Take B4: the net increase (gain of function) in water permeability (Pf) of oocytes when expressed along wt-AQP2, in % of the wt-AQP2 activity (% of the wt-AQP2 activity) in experiment [1] is 45.

B5: Aquaporin-2 V24A (untagged) (natural protein, human, UniProt P41181 1-271, looked up)
chain: T1 sequence (looked up) with V24A
notes: Aquaporin-2 (AQP2), human, recessive NDI mutation V24A from reported clinical cases, made by site-directed mutagenesis in pT7Ts; also called rec-AQP2; source: Xenopus laevis oocytes, cRNA injected; total membranes solubilised in 2% deoxycholate
For the molecule B5, the “co-precipitated untagged band, densitometry in % of wt-AQP2 (rec/rec homomers)” value in experiment [3] was 26 % of wt-AQP2. Also, the “co-precipitated untagged band, densitometry in % of wt-AQP2 (wt/rec heteromers)” value in experiment [4] is 75 % of wt-AQP2. Also, in experiment [5], the “gain of function in water permeability (Pf) of oocytes on coexpression with wt-AQP2 (specific activity with wt-AQP2 minus without), in % of wt-AQP2 activity” value is 63.9 % of wt-AQP2 activity and the “water permeability (Pf) of oocytes injected with 1 ng mRNA mixtures of wt/mut ratios 4/0 to 0/4, in % of pure wt-AQP2; the printed value is of the 2/2 ratio” value was 87 % of pure wt-AQP2.

B6: Aquaporin-2 D150E (untagged) (natural protein, human, UniProt P41181 1-271, looked up)
chain: T1 sequence (looked up) with D150E
notes: Aquaporin-2 (AQP2), human, recessive NDI mutation D150E from reported clinical cases, made by site-directed mutagenesis in pT7Ts; also called rec-AQP2; source: Xenopus laevis oocytes, cRNA injected; total membranes solubilised in 2% deoxycholate
In the case of B6, in experiment [4], the “co-precipitated untagged band, densitometry in % of wt-AQP2 (wt/rec heteromers)” value was 86 % of wt-AQP2. Further, in experiment [6], the “co-precipitated untagged band, densitometry in % of wt-AQP2 (rec/rec homomers)” value was 30 % of wt-AQP2. For the same molecule, the “gain of function in water permeability (Pf) of oocytes on coexpression with wt-AQP2 (specific activity with wt-AQP2 minus without), in % of wt-AQP2 activity” value in experiment [5] was 65.2 % of wt-AQP2 activity.

B7: Aquaporin-2 R187C (untagged) (natural protein, human, UniProt P41181 1-271, looked up)
chain: T1 sequence (looked up) with R187C
On to B7, for which the “gain of function in water permeability (Pf) of oocytes on coexpression with wt-AQP2 (specific activity with wt-AQP2 minus without), in % of wt-AQP2 activity; not functionally recovered” value in experiment [5] was 0.4 % of wt-AQP2 activity.
